Measurements as given in patent publication US20260258124A1 (CIMEIO THERAPEUTICS, published 2026).

What was measured:
[1] = molecular target: T1, human recombinant CD117 (c-Kit) from Sino Biological (Catalog No. 11996-H08H) (human, UniProt P10721 26-524); assay: BLI Octet, set-up as in Example 2
T1 construct: also called soluble antigen
Protocol: IgG antibodies were immobilized on biosensors using suitable capture surfaces and binding of soluble antigen to immobilized antibodies was monitored by BLI (Octet). The resulting sensorgrams were analyzed using the supplied software (Fortebio). As antigen human recombinant CD117 (c-Kit) from Sino Biological was used (Catalog No. 11996-H08H, Lot #LC14SE0812). As a pre-experiment a series of experiments was performed to optimize assay parameters. The following parameters were selected:
(§1) In the main experiment kinetic assays were performed by first capturing IgG using anti-human Fc biosensors. The mAb capture biosensors were then submerged in wells containing different concentrations of antigen (association stage) followed by a dissociation step in running buffer. To allow for double reference correction, IgG-captured sensors were dipped into wells containing only buffer and blank sensors were also dipped into wells containing the antigen. This referencing provided a means of compensating for both the natural dissociation of the capture IgG and non-specific binding of the antigen to the sensor surface. Steps were performed at 25° C. at a constant shaking of 1000 rpm. New sensors were used for each sample. Dissociation rate constants (Kd) were calculated using the ForteBio Data Analysis software. All consumables used were those recommended by ForteBio.

[2] = molecular target: T2, CD117 on wild-type cells (TF-1 cells, HSPCs, HSCs) (human, UniProt P10721 26-976); assay: cell-based or functional assay
[3] = molecular target: T2, CD117 on wild-type cells (TF-1 cells, …); assay: flow cytometry on TF-1 wild-type cells, Fc receptors blocked, goat anti-human IgG Alexa Fluor 488 as secondary antibody
Protocol: Binding of the antibodies of the present disclosure to CD117 on TF-1 cells was measured. TF-1 wild-type cells were seeded at a concentration of 100,000 cells/well. A Fc receptor blocking was performed using 25 μL TruStain FcX (BioLegend) for 15 min. Next cells are treated with various concentrations of the antibodies to be tested (0.0001-5 μg/ml). After additional 30 min cells were washed, then a secondary antibody was added to the cells (IgG (H+L) Cross-Adsorbed Goat anti-Human, Alexa Fluor® 488). After 30 min and two additional wash steps a live dead staining via 7AAD (7-aminoactinomycin D) was performed using 0.5 μg/mL 7AAD for 10 min before analyzing cells in a flow cytometer.

[4] = molecular target: T2, CD117 on wild-type cells (TF-1 cells, …); assay: cell-based or functional assay; remark: listed apart in the source
[5] = molecular target: T1, human recombinant CD117 (c-Kit) from …; assay: BLI Octet, set-up as in Example 2; remark: listed apart in the source
Protocol: as §1
All samples were diluted in freshly prepared running buffer. Antibody variants were immobilized onto the surface of a series of biosensors using the capture methods described. Antigen was passed over the surface to generate a binding response. Binding data for the IgG:antigen interactions were collected at 25° C. on the biosensors. A dilution series of the antigen was used in the association step, in order to fit results globally and get the best values for ka, kd, and KD. The response data for the binding of antigen to the surface immobilized IgG were fitted to a 1:1 binding model. HC0 LC0 refers to murine SR-1.

T2 sequence (P10721 26-976 limits assumed): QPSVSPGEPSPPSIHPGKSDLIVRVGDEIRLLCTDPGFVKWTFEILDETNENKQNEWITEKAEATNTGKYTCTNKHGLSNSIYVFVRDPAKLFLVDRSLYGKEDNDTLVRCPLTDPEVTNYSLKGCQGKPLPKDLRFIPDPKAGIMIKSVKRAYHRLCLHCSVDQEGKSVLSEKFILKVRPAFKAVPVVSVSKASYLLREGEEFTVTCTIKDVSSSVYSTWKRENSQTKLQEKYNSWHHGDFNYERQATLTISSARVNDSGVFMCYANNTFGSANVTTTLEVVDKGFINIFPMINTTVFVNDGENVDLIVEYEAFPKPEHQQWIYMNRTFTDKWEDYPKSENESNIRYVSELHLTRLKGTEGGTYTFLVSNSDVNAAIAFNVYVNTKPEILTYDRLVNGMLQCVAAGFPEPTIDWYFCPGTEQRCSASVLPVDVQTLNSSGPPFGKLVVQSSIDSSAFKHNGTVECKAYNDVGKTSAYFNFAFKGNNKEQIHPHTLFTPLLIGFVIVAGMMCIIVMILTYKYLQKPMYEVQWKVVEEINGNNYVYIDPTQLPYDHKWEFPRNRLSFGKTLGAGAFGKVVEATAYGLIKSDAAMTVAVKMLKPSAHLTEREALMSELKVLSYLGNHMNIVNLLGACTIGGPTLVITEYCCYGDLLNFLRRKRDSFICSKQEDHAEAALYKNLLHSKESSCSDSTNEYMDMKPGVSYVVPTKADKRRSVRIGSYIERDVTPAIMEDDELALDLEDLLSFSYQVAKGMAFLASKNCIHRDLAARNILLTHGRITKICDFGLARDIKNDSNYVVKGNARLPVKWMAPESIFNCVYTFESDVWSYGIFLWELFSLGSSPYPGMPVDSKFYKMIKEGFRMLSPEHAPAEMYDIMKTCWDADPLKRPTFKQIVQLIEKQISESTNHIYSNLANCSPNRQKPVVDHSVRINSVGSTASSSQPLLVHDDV
T1 sequence (P10721 26-524 limits assumed): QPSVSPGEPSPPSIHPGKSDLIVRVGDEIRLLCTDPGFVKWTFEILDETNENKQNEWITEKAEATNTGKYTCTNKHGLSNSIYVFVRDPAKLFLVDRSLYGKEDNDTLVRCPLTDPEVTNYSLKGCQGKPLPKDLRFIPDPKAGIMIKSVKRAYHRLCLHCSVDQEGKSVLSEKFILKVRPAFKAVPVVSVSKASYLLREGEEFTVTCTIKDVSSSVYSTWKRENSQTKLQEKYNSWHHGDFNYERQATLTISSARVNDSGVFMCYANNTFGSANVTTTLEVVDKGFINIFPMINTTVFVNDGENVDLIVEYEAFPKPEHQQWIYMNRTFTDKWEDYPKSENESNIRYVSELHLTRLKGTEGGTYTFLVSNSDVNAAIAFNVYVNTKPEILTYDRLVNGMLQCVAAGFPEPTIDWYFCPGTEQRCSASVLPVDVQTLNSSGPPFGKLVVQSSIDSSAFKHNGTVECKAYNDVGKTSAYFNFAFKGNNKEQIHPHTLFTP

Binder | binding result [1] | IC50, inhibition of SCF-dependent proliferation of TF-1 cells (CellTiter-Glo), Average [2] [µg/mL] | IC50, inhibition of SCF-dependent proliferation of TF-1 cells (CellTiter-Glo), Experiment #1 [2] [µg/mL] | IC50, inhibition of SCF-dependent proliferation of TF-1 cells (CellTiter-Glo), Experiment #2 [2] [µg/mL] | EC50 (read off the curve) [3] [µg/mL] | IC50, inhibition of SCF-dependent proliferation of CD34-positive HSPCs (CellTiter-Glo) [4] [µg/mL] | Kd [5] [nM] | binding result [3]
Dreieckhorn (antibody, V domains shown, IgG; also called VH1.4/VL1.32) VH: QVQLVQSGAEVKKPGASVKVSCKASGYTFTSYNMHWVRQAPGQGLEWMGVIYSGQGDTSYNQKFKGRVTMTTDTSTSTAYMELRSLTSDDTAVYYCARERDTRFGNWGQGTLVTVSA VL: EIVLTQSPSSLSASVGDRVTITCRASESVDIYGESFMHWYQQKPGKAPKLLIYSASNLESGVPSRFSGSGSGTDFTLTISSLQPEDFATYYCQQNREEPYTFGQGTKLEIK | binds |  |  |  |  |  |  | 
Piz Bernina (antibody, V domains shown, IgG; also called VH1/VL1.17) VH: QVQLVQSGAEVKKPGASVKVSCKASGYTFTSYNMHWVRQAPGQGLEWMGVIYSGNGDTSYNQKFKGRVTMTTDTSTSTAYMELRSLTSDDTAVYYCARERDTRFGNWGQGTLVTVSA VL: EIVLTQSPSSLSASVGDRVTITCRASESVDIYGESFMHWYQQKPGKAPKLLIYLASNLESGVPSRFSGSGSGTDFTLTISSLQPEDFATYYCQQNNEEPYTFGQGTKLEIKR |  | 0.0176 | 0.0122 | 0.0231 | ~0.02 | 0.00521 | 0.19 | 
Allalinhorn (antibody, V domains shown, IgG; also called VH1/VL1.19; Allaninhorn) VH: QVQLVQSGAEVKKPGASVKVSCKASGYTFTSYNMHWVRQAPGQGLEWMGVIYSGNGDTSYNQKFKGRVTMTTDTSTSTAYMELRSLTSDDTAVYYCARERDTRFGNWGQGTLVTVSA VL: EIVLTQSPSSLSASVGDRVTITCRASESVDIYGESFMHWYQQKPGKAPKLLIYLASNLESGVPSRFSGSGSGTDFTLTISSLQPEDFATYYCQQNKEEPYTFGQGTKLEIKR |  | 0.0441 | 0.0415 | 0.0467 | ~0.02 | 0.0313 | 0.45 | 
Bietschhorn (antibody, V domains shown, IgG; also called VH1/VL1.29) VH: QVQLVQSGAEVKKPGASVKVSCKASGYTFTSYNMHWVRQAPGQGLEWMGVIYSGNGDTSYNQKFKGRVTMTTDTSTSTAYMELRSLTSDDTAVYYCARERDTRFGNWGQGTLVTVSA VL: EIVLTQSPSSLSASVGDRVTITCRASESVDIYGESFMHWYQQKPGKAPKLLIYLASNLESGVPSRFSGSGSGTDFTLTISSLQPEDFATYYCQQNREEPYTFGQGTKLEIKR |  | 0.151 | 0.0455 | 0.256 | ~0.04 | 0.0842 | 1.1 | 
Piz Roseg (antibody, V domains shown, IgG; also called VH1/VL1.28) VH: QVQLVQSGAEVKKPGASVKVSCKASGYTFTSYNMHWVRQAPGQGLEWMGVIYSGNGDTSYNQKFKGRVTMTTDTSTSTAYMELRSLTSDDTAVYYCARERDTRFGNWGQGTLVTVSA VL: EIVLTQSPSSLSASVGDRVTITCRASESVDIYGSSFMHWYQQKPGKAPKLLIYKASNLESGVPSRFSGSGSGTDFTLTISSLQPEDFATYYCQQNKEEPYTFGQGTKLEIKR |  | > 0.5 | > 0.5 | > 0.5 | ~0.2 | > 10 | 8.3 | 
Piz Morteratsch (antibody, V domains shown, IgG; also called VH1.4/VL1.33) VH: QVQLVQSGAEVKKPGASVKVSCKASGYTFTSYNMHWVRQAPGQGLEWMGVIYSGQGDTSYNQKFKGRVTMTTDTSTSTAYMELRSLTSDDTAVYYCARERDTRFGNWGQGTLVTVSA VL: EIVLTQSPSSLSASVGDRVTITCRASESVDIYGESFMHWYQQKPGKAPKLLIYQASNLESGVPSRFSGSGSGTDFTLTISSLQPEDFATYYCQQNREEPYTFGQGTKLEIK | binds |  |  |  |  |  |  | 
Nesthorn (antibody, V domains shown, IgG; also called VH1.4/VL1.31) VH: QVQLVQSGAEVKKPGASVKVSCKASGYTFTSYNMHWVRQAPGQGLEWMGVIYSGQGDTSYNQKFKGRVTMTTDTSTSTAYMELRSLTSDDTAVYYCARERDTRFGNWGQGTLVTVSA VL: EIVLTQSPSSLSASVGDRVTITCRASESVDIYGESFMHWYQQKPGKAPKLLIYEASNLESGVPSRFSGSGSGTDFTLTISSLQPEDFATYYCQQNREEPYTFGQGTKLEIK | binds |  |  |  |  |  |  | 
Piz Palü (antibody, V domains shown, IgG; also called VH1.4/VL1.30) VH: QVQLVQSGAEVKKPGASVKVSCKASGYTFTSYNMHWVRQAPGQGLEWMGVIYSGQGDTSYNQKFKGRVTMTTDTSTSTAYMELRSLTSDDTAVYYCARERDTRFGNWGQGTLVTVSA VL: EIVLTQSPSSLSASVGDRVTITCRASESVDIYGESFMHWYQQKPGKAPKLLIYHASNLESGVPSRFSGSGSGTDFTLTISSLQPEDFATYYCQQNREEPYTFGQGTKLEIK | binds |  |  |  |  |  |  | 
Balmhorn (antibody, V domains shown, IgG; also called VH1.4/VL1.19) VH: QVQLVQSGAEVKKPGASVKVSCKASGYTFTSYNMHWVRQAPGQGLEWMGVIYSGQGDTSYNQKFKGRVTMTTDTSTSTAYMELRSLTSDDTAVYYCARERDTRFGNWGQGTLVTVSA VL: EIVLTQSPSSLSASVGDRVTITCRASESVDIYGESFMHWYQQKPGKAPKLLIYLASNLESGVPSRFSGSGSGTDFTLTISSLQPEDFATYYCQQNKEEPYTFGQGTKLEIKR | binds |  |  |  |  |  |  | 
Piz Argient (antibody, V domains shown, IgG; also called VH1/VL1.27) VH: QVQLVQSGAEVKKPGASVKVSCKASGYTFTSYNMHWVRQAPGQGLEWMGVIYSGNGDTSYNQKFKGRVTMTTDTSTSTAYMELRSLTSDDTAVYYCARERDTRFGNWGQGTLVTVSA VL: EIVLTQSPSSLSASVGDRVTITCRASESVDIYGHSFMHWYQQKPGKAPKLLIYLASNLESGVPSRFSGSGSGTDFTLTISSLQPEDFATYYCQQNKEEPYTFGQGTKLEIKR |  | > 0.5 | > 0.5 | > 0.5 | ~0.1 | > 10 | 3.3 | 
NegCtrl (antibody, V domains shown, also called NegCtrl antibody (anti-chicken lysozyme); NegCtrt) VH: QVQLQQSGPGLVKPSQTLSLTCAISGDSVSSNSAAWSWIRQSPGRGLEWLGRIYYRSKWYNDYAVSVKSRITINPDTSKNQFSLQLNSVTPEDTAVYYCARLDHRYHEDTVYPGMDVWGQGTLVTVSS VL: DIELTQPPSVSVAPGQTARISCSGDNLPAYTVTWYQQKPGQAPVLVIYDDSDRPSGIPERFSGSNSGNTATLTISGTQAEDEADYYCASWDPSSGVVFGGGTKLTVL |  | > 0.5 | > 0.5 | > 0.5 |  | > 10 |  | no binding (tested: 5 ug/ml)
